In patent US20220175873A1:
Blank lines part the entries; values can stand above or below the binder they belong to. No end group written: not given here.

Experiments:
[1] = molecular target: FQSE (SEQ ID NO:10)-specific binding sites in rat cortex membranes (rat); experiment: radioligand analysis with [3H] FQSE and unlabeled FQSE on membranes isolated by various techniques
[2] = molecular target: FQSE (SEQ ID NO:10)-specific binding sites in rat cortex membranes (rat); experiment: radioligand analysis, rat cortex membranes, incubation 10 min at 37 °C
[3] = molecular target: FQSE (SEQ ID NO:10)-specific binding sites in rat cortex membranes (rat); experiment: radioligand analysis, rat cortex membranes, buffer with added salts (NaCl, KCl, KH2PO4, CaCl2, MgCl2)
[4] = molecular target: FQSE (SEQ ID NO:10)-specific binding sites in rat cortex membranes (rat); experiment: radioligand analysis, rat cortex membranes, incubation 30 min at 37 °C
[5] = molecular target: FQSE (SEQ ID NO:10)-specific binding sites in rat cortex membranes (rat); experiment: radioligand analysis, rat cortex membranes, incubation 20 min at 37 °C
[6] = molecular target: FQSE (SEQ ID NO:10)-specific binding sites in rat cortex membranes (rat); experiment: radioligand analysis, rat cortex membranes, incubation 30 min at 24 °C
[7] = molecular target: FQSE (SEQ ID NO:10)-specific binding sites in rat cortex membranes (rat); experiment: radioligand analysis, rat cortex membranes, incubation 25 min at 24 °C (selected condition)
[8] = molecular target: FQSE (SEQ ID NO:10)-specific binding sites in rat cortex membranes (rat); experiment: radioligand analysis, rat cortex membranes, incubation 10 min at 4 °C
[9] = molecular target: NMDA receptors of rat hippocampal plasma membranes (rat); experiment: radioligand analysis with [^3H]-FQSE and unlabeled FQSE on rat hippocampal membranes isolated for NMDA receptors (negative control)
[10] = molecular target: FQSE (SEQ ID NO:10)-specific binding sites in rat cortex membranes (rat); experiment: radioligand analysis, rat cortex membranes, incubation 20 min at 4 °C
[11] = molecular target: FQSE (SEQ ID NO:10)-specific binding sites in rat cortex membranes (rat); experiment: radioligand analysis, rat cortex membranes, incubation 20 min at 24 °C
[12] = molecular target: GABAA receptor of rat cerebral cortex plasma membranes (rat); experiment: [^3H]-Flunitrazepam radioligand analysis (benzodiazepine site), 30 min incubation, 4 °C; FQSE 10^-4 M
[13] = molecular target: GABAA receptor of rat cerebral cortex plasma membranes (rat); experiment: [^3H]-Flunitrazepam radioligand analysis (benzodiazepine site), 25 min pre-incubation + 30 min incubation, 24 °C; FQSE 10^-5 M
[14] = molecular target: GABAA receptor of rat cerebral cortex plasma membranes (rat); experiment: [^3H]-Flunitrazepam radioligand analysis (benzodiazepine site), 25 min pre-incubation + 30 min incubation, 4 °C; FQSE 10^-5 M
[15] = molecular target: GABAA receptor of rat cerebral cortex plasma membranes (rat); experiment: [^3H]-Flunitrazepam radioligand analysis (benzodiazepine site), 30 min incubation, 24 °C; FQSE 10^-5 M
[16] = molecular target: FQSE (SEQ ID NO:10)-specific binding sites in rat cortex membranes (rat); experiment: displacement of [^3H]-FQSE by unlabeled FQSE, rat cortex membranes, 25 min at room temperature
[17] = molecular target: GABAA receptor of rat cerebral cortex plasma membranes (rat); experiment: [^3H]-Flunitrazepam radioligand analysis (benzodiazepine site), 30 min incubation, 24 °C; FQSE 10^-4 M
[18] = molecular target: GABAA receptor of rat cerebral cortex plasma membranes (rat); experiment: [^3H]-Flunitrazepam radioligand analysis (benzodiazepine site), 30 min incubation, 4 °C; FQSE 10^-5 M
[19] = molecular target: GABAA receptor of rat cerebral cortex plasma membranes (rat); experiment: [^3H]-Flunitrazepam radioligand analysis (benzodiazepine site), 25 min pre-incubation + 30 min incubation, 24 °C; FQSE 10^-4 M
[20] = molecular target: GABAA receptor of rat cerebral cortex plasma membranes (rat); experiment: [^3H]-Flunitrazepam radioligand analysis (benzodiazepine site), 25 min pre-incubation + 30 min incubation, 4 °C; FQSE 10^-4 M

specific FQSE binding percentage of the total binding [1]: 0 to 47%
% percentage of specific binding of total binding [2]: 72%
percentage of specific binding [3]: 63%
% percentage of specific binding of total binding [4]: 77%
% percentage of specific binding of total binding [5]: 79%
% percentage of specific binding of total binding [6]: 78%
% percentage of specific binding of total binding [7]: 86%
% percentage of specific binding of total binding [8]: 47%
difference between total and non-specific binding [9]: 11%
% percentage of specific binding of total binding [10]: 48%
% percentage of specific binding of total binding [11]: 75%
B1: [^3H]-FQSE (SEQ ID NO:10), tritium radiolabeled peptide (peptide)
peptide: FQSE
modifications: also: tritium label ([3H]), position not given here

Specific binding of [^3H]-Flunitrazepam, relative to control levels, % [12]: 100%
Specific binding of [^3H]-Flunitrazepam, relative to control levels, % [13]: 99.8%
Specific binding of [^3H]-Flunitrazepam, relative to control levels, % [14]: 101%
Specific binding of [^3H]-Flunitrazepam, relative to control levels, % [15]: 101%
IC50 [16]: 2000 nM
Specific binding of [^3H]-Flunitrazepam, relative to control levels, % [17]: 101%
Specific binding of [^3H]-Flunitrazepam, relative to control levels, % [18]: 100%
Specific binding of [^3H]-Flunitrazepam, relative to control levels, % [19]: 101%
Specific binding of [^3H]-Flunitrazepam, relative to control levels, % [20]: 101%
B2: FQSE (SEQ ID NO:10) peptide, unlabeled (peptide)
peptide: FQSE
